# Article PMC6889141, “In vivo methylation of OLA1 revealed by activity-based target profiling of NTMT1† †Electronic supplementary information (ESI) available. See DOI: 10.1039/c9sc02550b” (Chemical Science, 2019)
# T1: N-Terminal methyltransferase 1 (NTMT1), wild type (UniProt Q9BV86 1-223)
# T1 construct: N-terminal methyltransferase 1 (NTMT1), wild type; they probably stand in the ESI; also called wt NTMT1
# T1 sequence (looked up): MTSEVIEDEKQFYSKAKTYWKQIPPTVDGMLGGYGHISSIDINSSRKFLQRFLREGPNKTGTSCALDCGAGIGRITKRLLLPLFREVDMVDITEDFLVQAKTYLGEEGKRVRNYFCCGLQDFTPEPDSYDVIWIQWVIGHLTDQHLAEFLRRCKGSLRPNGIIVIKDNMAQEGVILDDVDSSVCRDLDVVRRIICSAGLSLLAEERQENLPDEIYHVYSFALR
# B1: RCC1p, peptide of the first 10 N-terminal residues of RCC1 after initial methionine removal (peptide, UniProt P18754 2-11, looked up)
# peptide: SPKRIAKRRS
# notes: RCC1, the first 10 N-terminal residues after removal of the initial methionine (residues 2-11 counted with the methionine as 1); also called RCC1 peptide; source: synthetic peptide
# Target: T1, N-Terminal methyltransferase 1 (NTMT1), …
# Assay: ITC; affinity of RCC1 peptide with wt NTMT1; conditions, and which of the two was titrated, not told in the text shown
# Settings: both partners purified
binder,measurement,value
B1,Kd,1220 ± 20 nM
